Measurements: patent US6623738 (University of California, dated 2003)

How the values were obtained:
[1] = biological target: T1, rat semaphorin receptor 1 (rSR1), full length, expressed on cells (rat, UniProt Q9QWJ9 22-922); assay: binding to transfected COS-7 cells
T1 construct: also called rat SR1; p28
T1 sequence: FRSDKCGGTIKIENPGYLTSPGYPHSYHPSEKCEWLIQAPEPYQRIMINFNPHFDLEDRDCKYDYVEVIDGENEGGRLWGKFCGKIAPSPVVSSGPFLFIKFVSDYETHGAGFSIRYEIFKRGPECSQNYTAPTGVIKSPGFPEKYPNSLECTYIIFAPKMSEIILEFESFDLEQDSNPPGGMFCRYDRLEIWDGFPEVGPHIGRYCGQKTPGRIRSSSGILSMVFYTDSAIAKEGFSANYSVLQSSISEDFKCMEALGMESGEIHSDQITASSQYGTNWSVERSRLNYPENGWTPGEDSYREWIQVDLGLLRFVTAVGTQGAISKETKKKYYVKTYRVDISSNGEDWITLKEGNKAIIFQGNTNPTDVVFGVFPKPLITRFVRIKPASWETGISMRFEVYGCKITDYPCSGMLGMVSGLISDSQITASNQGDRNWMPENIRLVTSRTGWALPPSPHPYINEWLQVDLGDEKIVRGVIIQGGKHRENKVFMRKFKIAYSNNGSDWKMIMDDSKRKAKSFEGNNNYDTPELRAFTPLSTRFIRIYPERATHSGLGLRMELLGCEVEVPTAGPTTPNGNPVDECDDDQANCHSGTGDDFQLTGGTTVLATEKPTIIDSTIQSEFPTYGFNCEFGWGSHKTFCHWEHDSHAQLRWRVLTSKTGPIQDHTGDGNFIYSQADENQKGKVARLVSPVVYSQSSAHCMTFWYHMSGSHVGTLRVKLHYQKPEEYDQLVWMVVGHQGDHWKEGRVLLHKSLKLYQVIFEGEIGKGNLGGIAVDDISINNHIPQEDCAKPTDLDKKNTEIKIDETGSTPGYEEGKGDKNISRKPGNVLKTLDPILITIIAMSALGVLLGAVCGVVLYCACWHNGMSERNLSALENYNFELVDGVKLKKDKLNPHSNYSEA

[2] = biological target: T2, mouse neuropilin-2(a0), myc-tagged, expressed in COS-7 cells (mouse, UniProt O35375 21-931); assay: AP histochemistry on transfected COS cells
T2 construct: also called SR2(a)0; m-npn-2
T2 sequence: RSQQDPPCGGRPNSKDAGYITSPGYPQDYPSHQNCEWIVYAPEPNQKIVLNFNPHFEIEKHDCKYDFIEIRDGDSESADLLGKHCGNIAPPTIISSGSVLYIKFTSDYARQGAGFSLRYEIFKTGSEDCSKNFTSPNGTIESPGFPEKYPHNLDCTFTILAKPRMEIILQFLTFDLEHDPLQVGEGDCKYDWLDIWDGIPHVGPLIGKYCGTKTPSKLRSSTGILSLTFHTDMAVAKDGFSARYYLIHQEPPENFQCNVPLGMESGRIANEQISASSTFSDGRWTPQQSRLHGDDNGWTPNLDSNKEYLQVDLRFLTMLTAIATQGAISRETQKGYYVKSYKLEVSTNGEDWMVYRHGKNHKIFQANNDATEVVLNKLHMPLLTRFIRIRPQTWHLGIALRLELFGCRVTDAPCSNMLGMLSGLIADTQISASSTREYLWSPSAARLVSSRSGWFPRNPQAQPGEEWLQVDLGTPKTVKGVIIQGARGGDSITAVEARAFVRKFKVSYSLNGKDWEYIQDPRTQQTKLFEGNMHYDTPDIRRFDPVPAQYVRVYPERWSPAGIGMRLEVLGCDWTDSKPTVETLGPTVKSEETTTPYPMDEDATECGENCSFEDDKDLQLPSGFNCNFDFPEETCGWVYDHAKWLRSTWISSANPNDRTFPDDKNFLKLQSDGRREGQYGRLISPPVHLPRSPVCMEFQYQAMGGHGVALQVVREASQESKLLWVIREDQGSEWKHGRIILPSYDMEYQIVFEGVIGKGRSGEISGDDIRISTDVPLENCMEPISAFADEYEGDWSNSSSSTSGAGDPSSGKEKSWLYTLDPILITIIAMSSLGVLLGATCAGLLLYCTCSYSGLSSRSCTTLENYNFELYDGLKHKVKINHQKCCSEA

[3] = biological target: T3, mouse neuropilin-2(a5), myc-tagged, expressed in COS-7 cells (mouse, UniProt O35375 21-931); assay: AP histochemistry on transfected COS cells
T3 construct: also called a5 isoform of neuropilin-2; SR2(a)5
T3 sequence: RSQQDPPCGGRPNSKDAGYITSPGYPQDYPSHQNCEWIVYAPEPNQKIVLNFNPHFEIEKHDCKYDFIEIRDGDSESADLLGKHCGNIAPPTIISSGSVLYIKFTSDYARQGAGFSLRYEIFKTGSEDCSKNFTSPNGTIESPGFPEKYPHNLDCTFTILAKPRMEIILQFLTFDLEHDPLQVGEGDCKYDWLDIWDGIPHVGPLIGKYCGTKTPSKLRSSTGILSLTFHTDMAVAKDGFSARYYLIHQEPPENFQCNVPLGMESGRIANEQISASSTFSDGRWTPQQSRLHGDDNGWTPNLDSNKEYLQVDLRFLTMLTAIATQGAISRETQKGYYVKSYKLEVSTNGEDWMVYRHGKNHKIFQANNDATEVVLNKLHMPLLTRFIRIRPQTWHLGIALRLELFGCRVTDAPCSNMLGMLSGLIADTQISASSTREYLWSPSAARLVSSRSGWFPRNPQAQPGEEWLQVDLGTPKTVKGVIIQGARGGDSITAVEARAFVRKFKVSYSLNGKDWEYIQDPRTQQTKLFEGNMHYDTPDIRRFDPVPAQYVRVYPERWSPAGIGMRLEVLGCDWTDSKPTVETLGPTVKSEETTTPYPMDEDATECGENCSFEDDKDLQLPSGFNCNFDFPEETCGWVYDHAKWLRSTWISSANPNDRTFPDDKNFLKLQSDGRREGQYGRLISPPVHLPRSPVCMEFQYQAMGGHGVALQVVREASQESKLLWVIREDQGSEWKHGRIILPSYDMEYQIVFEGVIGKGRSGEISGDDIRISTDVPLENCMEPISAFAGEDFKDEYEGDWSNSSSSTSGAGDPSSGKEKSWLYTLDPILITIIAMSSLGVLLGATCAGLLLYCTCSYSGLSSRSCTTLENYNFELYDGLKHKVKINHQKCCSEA

[4] = biological target: T4, mouse neuropilin-2(a22), myc-tagged, expressed in COS-7 cells (mouse, UniProt O35375 21-931); assay: AP histochemistry on transfected COS cells
T4 construct: also called SR2(a)22
T4 sequence: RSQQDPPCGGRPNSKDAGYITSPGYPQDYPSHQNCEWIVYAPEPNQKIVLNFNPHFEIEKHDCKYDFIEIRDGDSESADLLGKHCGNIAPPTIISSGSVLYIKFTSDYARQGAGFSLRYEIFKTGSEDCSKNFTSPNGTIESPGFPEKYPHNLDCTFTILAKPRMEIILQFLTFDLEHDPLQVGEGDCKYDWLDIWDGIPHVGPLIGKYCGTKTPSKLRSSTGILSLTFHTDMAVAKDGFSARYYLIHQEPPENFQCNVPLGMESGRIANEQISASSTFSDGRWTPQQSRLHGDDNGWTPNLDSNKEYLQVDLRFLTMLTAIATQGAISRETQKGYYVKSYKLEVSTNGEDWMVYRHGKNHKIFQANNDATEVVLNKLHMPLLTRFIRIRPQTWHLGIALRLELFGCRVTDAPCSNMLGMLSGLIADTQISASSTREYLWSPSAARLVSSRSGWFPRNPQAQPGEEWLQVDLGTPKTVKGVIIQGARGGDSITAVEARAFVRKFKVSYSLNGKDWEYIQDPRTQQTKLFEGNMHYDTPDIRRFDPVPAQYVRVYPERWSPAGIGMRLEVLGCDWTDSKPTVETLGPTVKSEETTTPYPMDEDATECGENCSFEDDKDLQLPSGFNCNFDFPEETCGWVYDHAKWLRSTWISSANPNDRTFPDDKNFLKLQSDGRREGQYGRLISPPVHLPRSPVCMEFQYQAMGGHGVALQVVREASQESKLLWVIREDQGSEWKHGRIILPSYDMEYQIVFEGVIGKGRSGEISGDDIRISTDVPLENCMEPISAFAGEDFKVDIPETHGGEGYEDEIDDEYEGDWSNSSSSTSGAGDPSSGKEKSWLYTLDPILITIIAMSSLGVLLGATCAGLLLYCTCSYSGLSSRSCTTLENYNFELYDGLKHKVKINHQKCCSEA

binding result [1]: no binding | binding result [2]: no binding | binding result [3]: no binding | binding result [4]: no binding
B1: alkaline phosphatase (AP) alone (enzyme, UniProt P05187 23-511, looked up)
chain: IIPVEEENPDFWNREAAEALGAAKKLQPAQTAAKNLIIFLGDGMGVSTVTAARILKGQKKDKLGPEIPLAMDRFPYVALSKTYNVDKHVPDSGATATAYLCGVKGNFQTIGLSAAARFNQCNTTRGNEVISVMNRAKKAGKSVGVVTTTRVQHASPAGTYAHTVNRNWYSDADVPASARQEGCQDIATQLISNMDIDVILGGGRKYMFRMGTPDPEYPDDYSQGGTRLDGKNLVQEWLAKRQGARYVWNRTELMQASLDPSVTHLMGLFEPGDMKYEIHRDSTLDPSLMEMTEAALRLLSRNPRGFFLFVEGGRIDHGHHESRAYRALTETIMFDDAIERAGQLTSEEDTLSLVTADHSHVFSFGGYPLRGSSIFGLAPGKARDRKAYTVLLYGNGPGYVLKDGARPDVTESESGSPEYRQQSAVPLDEETHAGEDVAVFARGPQAHLVHGVQEQTFIAHVMAFAACLEPYTACDLAPPAGTTDAAHPG
notes: Control protein; also called alkaline phosphatase protein
